Biological target: T1, PTK7 (on intact CCRF-CEM cells) (human (CCRF-CEM, T cell acute lymphoblastic leukemia)) (UniProt Q13308)
T1 sequence: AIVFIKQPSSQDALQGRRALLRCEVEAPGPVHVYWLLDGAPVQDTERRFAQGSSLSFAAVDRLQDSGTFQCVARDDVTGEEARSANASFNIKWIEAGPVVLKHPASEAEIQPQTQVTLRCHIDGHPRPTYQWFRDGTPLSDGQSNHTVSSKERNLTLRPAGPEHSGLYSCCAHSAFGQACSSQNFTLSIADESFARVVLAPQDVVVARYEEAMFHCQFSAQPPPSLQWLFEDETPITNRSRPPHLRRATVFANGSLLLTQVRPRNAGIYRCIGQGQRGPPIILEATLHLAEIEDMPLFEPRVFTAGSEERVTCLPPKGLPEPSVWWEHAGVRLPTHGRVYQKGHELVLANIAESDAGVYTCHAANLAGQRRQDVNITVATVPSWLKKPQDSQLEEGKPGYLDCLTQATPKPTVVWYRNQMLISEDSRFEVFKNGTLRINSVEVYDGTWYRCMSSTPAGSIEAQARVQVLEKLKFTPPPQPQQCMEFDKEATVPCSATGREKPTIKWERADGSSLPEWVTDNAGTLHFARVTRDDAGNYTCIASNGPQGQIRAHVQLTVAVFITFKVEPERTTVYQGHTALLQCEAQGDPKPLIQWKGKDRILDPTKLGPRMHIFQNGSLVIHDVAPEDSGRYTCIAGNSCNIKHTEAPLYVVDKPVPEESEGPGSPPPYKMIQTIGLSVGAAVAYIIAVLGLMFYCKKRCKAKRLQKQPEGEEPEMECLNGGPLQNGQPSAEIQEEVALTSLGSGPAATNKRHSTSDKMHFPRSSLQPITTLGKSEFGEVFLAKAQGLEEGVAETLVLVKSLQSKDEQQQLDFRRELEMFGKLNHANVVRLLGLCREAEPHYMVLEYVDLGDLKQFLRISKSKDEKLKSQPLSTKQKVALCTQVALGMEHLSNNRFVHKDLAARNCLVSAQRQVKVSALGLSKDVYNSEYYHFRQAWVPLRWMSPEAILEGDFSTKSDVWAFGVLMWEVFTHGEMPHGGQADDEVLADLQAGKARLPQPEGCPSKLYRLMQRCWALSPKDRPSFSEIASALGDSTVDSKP
Assay: flow cytometry, CCRF-CEM cells
Conditions: apparent Kd on cells, 1x PBS, 0.55 mM MgCl2, pH 7.4, 200 uL, 1e5 cells, 30 min in the dark at room temperature (Methods; Results say on ice)

Sequence	Kd	Kd (multivalent)
ATCTAACTGCTGCGCCGCCGGGAAAATACTGTACGGTTAGA [free sgc8]	2.95 nM	
TATGTCTCGAGTATTTTTATCTAACTGCTGCGCCGCCGGGAAAATACTGTACGGTTAGA / GACCGATGGATGACCTGTCTGCCTAATGTGCGTCGTAAG / GACCGATGGATGACTTACGACGCACAAGGAGATCATGAG / GACCGATGGATGACTCATGATCTCCTTTAGGCAGACAGG / GAAGCCACTCTGACCTGTCTGCCTAATGTGCGTCGTAAG / GAAGCCACTCTGACTTACGACGCACAAGGAGATCATGAG / TCATCCATCGGTCCTCATGATCTCCTTTAGGCAGACAGG / GACACACTGAGGTCCTGTCTGCCTAATGTGCGTCGTAAG / GACACACTGAGGTCTTACGACGCACAAGGAGATCATGAG / TCAGAGTGGCTTCCTCATGATCTCCTTTAGGCAGACAGG / TACTCGAGACATACCTGTCTGCCTAATGTGCGTCGTAAG / TACTCGAGACATACTTACGACGCACAAGGAGATCATGAG / ACCTCAGTGTGTCCTCATGATCTCCTTTAGGCAGACAGG [G3-sgc8 DNA dendrimer]		0.07 nM
